This is an account of results in article PMC6238537 (Life Science Alliance, 2018).

For the experiment, the target named is T1, recombinant human laminin-511 (human, UniProt O15230 36-3695; P07942 22-1786; P11047 34-1609).
T1 construct: the FLAG tag stands just after the N-terminal signal peptide cleavage site; αβγ heterotrimer; also called LM511; not shown: FLAG, N-terminal, kept; copies: + +
The experiment in a line: ELISA; solid-phase binding assay: 96-well plates coated with laminins at 5 nM overnight at 4°C, blocked with 3% BSA; 30 nM integrins for 3 h at room temperature with 1 mM Mn2+; bound integrins detected by biotinylated anti-Velcro pAb and HRP-streptavidin (absorbance at 490 nm). The conditions noted are these: both partners purified.

B1: recombinant integrin αvβ3 (receptor, human)
chain 1: FNLDVDSPAEYSGPEGSYFGFAVDFFVPSASSRMFLLVGAPKANTTQPGIVEGGQVLKCDWSSTRRCQPIEFDATGNRDYAKDDPLEFKSHQWFGASVRSKQDKILACAPLYHWRTEMKQEREPVGTCFLQDGTKTVEYAPCRSQDIDADGQGFCQGGFSIDFTKADRVLLGGPGSFYWQGQLISDQVAEIVSKYDPNVYSIKYNNQLATRTAQAIFDDSYLGYSVAVGDFNGDGIDDFVSGVPRAARTLGMVYIYDGKNMSSLYNFTGEQMAAYFGFSVAATDINGDDYADVFIGAPLFMDRGSDGKLQEVGQVSVSLQRASGDFQTTKLNGFEVFARFGSAIAPLGDLDQDGFNDIAIAAPYGGEDKKGIVYIFNGRSTGLNAVPSQILEGQWAARSMPPSFGYSMKGATDIDKNGYPDLIVGAFGVDRAILYRARPVITVNAGLEVYPSILNQDNKTCSLPGTALKVSCFNVRFCLKADGKGVLPRKLNFQVELLLDKLKQKGAIRRALFLYSRSPSHSKNMTISRGGLMQCEELIAYLRDESEFRDKLTPITIFMEYRLDYRTAADTTGLQPILNQFTPANISRQAHILLDCGEDNVCKPKLEVSVDSDQKKIYIGDDNPLTLIVKAQNQGEGAYEAELIVSIPLQADFIGVVRNNEALARLSCAFKTENQTRQVVCDLGNPMKAGTQLLAGLRFSVHQQSEMDTSVKFDLQIQSSNLFDKVSPVVSHKVDLAVLAAVEIRGVSSPDHVFLPIPNWEHKENPETEEDVGPVVQHIYELRNNGPSSFSKAMLHLQWPYKYNNNTLLYILHYDIDGPMNCTSDMEINPLRIKISSLQTTEKNDTVAGQGERDHLITKRDLALSEGDIHTLGCGVAQCLKIVCQVGRLDRGKSAILYVKSLLWTETFMNKENQNHSYSLKSSASFNVIEFPYKNLPIEDITNSTLVTTNVTWGIQPAPMPV
chain 2: GPNICTTRGVSSCQQCLAVSPMCAWCSDEALPLGSPRCDLKENLLKDNCAPESIEFPVSEARVLEDRPLSDKGSGDSSQVTQVSPQRIALRLRPDDSKNFSIQVRQVEDYPVDIYYLMDLSYSMKDDLWSIQNLGTKLATQMRKLTSNLRIGFGAFVDKPVSPYMYISPPEALENPCYDMKTTCLPMFGYKHVLTLTDQVTRFNEEVKKQSVSRNRDAPEGGFDAIMQATVCDEKIGWRNDASHLLVFTTDAKTHIALDGRLAGIVQPNDGQCHVGSDNHYSASTTMDYPSLGLMTEKLSQKNINLIFAVTENVVNLYQNYSELIPGTTVGVLSMDSSNVLQLIVDAYGKIRSKVELEVRDLPEELSLSFNATCLNNEVIPGLKSCMGLKIGDTVSFSIEAKVRGCPQEKEKSFTIKPVGFKDSLIVQVTFDCDCACQAQAEPNSHRCNNGNGTFECGVCRCGPGWLGSQCECSEEDYRPSQQDECSPREGQPVCSQRGECLCGQCVCHSSDFGKITGKYCECDDFSCVRYKGEMCSGHGQCSCGDCLCDSDWTGYYCNCTTRTDTCMSSNGLLCSGRGKCECGSCVCIQPGSYGDTCEKCPTCPDACTFKKECVECKKFDRGALHDENTCNRYCRDEIESVKELKDTGKDAVNCTYKNEDDCVVRFQYYEDSSGKSILYVVEEPECPKGPD
notes: integrin αv subunit, human, extracellular domain; integrin β3 subunit, human, extracellular domain; truncated soluble heterodimer; vectors from Dr. Junichi Takagi (Takagi et al, 2001, 2002a, b); Purification on ANTI-FLAG gel implies a FLAG tag
For the molecule B1, the binding result is reported as “binds”.

B2: recombinant integrin αvβ5 (receptor, human)
chain 1: B1 chain 1
chain 2: GLNICTSGSATSCEECLLIHPKCAWCSKEDFGSPRSITSRCDLRANLVKNGCGGEIESPASSFHVLRSLPLSSKGSGSAGWDVIQMTPQEIAVNLRPGDKTTFQLQVRQVEDYPVDLYYLMDLSLSMKDDLDNIRSLGTKLAEEMRKLTSNFRLGFGSFVDKDISPFSYTAPRYQTNPCIGYKLFPNCVPSFGFRHLLPLTDRVDSFNEEVRKQRVSRNRDAPEGGFDAVLQAAVCKEKIGWRKDALHLLVFTTDDVPHIALDGKLGGLVQPHDGQCHLNEANEYTASNQMDYPSLALLGEKLAENNINLIFAVTKNHYMLYKNFTALIPGTTVEILDGDSKNIIQLIINAYNSIRSKVELSVWDQPEDLNLFFTATCQDGVSYPGQRKCEGLKIGDTASFEVSLEARSCPSRHTEHVFALRPVGFRDSLEVGVTYNCTCGCSVGLEPNSARCNGSGTYVCGLCECSPGYLGTRCECQDGENQSVYQNLCREAEGKPLCSGRGDCSCNQCSCFESEFGKIYGPFCECDNFSCARNKGVLCSGHGECHCGECKCHAGYIGDNCNCSTDISTCRGRDGQICSERGHCLCGQCQCTEPGAFGEMCEKCPTCPDACSTKRDCVECLLLHSGKPDNQTCHSLCRDEVITWVDTIVKDDQEAVLCFYKTAKDCVMMFTYVELPSGKSNLTVLREPECGNTPN
notes: integrin αv subunit, human, extracellular domain; integrin β5 subunit, human, extracellular domain; cDNA amplified from RNA of T98G human glioblastoma cells; truncated soluble heterodimer; Purification on ANTI-FLAG gel implies a FLAG tag
Take B2: the binding result is reported as “binds”.
